Drawing on article PMC3102678, this text covers inhibition of F-mediated conjugation by replicating phage M13-km^R (no pre-infection), binding model applied naively without phage replication and infection: apparent Kd for one substance.

The test addresses F pilus (conjugative pilus encoded by the F′ plasmid) on E. coli TOP10F′ (F+) cells (E. coli (endogenous on TOP10F′, F′ plasmid)) (UniProt P04737).
Sequence of UniProt P04737 (P04737 52-121): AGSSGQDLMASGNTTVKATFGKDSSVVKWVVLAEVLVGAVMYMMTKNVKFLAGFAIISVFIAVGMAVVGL

Take “g3p on replicating phage M13-km^R (from UniProt P69168 19-424) (natural protein)”: the inhibition of F-mediated conjugation by replicating phage M13-km^R (no pre-infection), binding model applied naively without phage replication and infection: apparent Kd was determined as 2.4 pM.
